The values below come from patent US20260092121A1 (TALEM THERAPEUTICS, published 2026).

Test [1] has as its target T1, mouse TrkB-ECD-GST (mouse, UniProt P15209 32-429).
T1 construct: extracellular domain; in-house fusion, HEK293; also called mTrkB-ECD-GST; mTrkB (ELISA); not shown: glutathione S-transferase (GST) fusion part
The experiment in a line: ELISA.

For test [2], the target named is T2, human TrkB-ECD-GST (human, UniProt Q16620 32-430).
T2 construct: in-house fusion, HEK293; also called hTrkB-ECD-GST; human TrkB-GST; not shown: glutathione S-transferase (GST) fusion part
The experiment in a line: ELISA.

Test [3] deals with TrkB in PathHunter eXpress TrkB Functional Assay cells (modified U2OS). The experiment in a line: cell-based or functional assay.
Test [4] has as its target T3, human TrkB-His (human, UniProt Q16620 32-430).
T3 construct: in-house fusion of the TrkB ECD with poly-His, HEK293; also called huTrkB-His; hTrkB-His; not shown: poly-His tag
The experiment in a line: BLI off-rate, mAb immobilized, 300 nM TrkB-His.

B1: anti-TrkB clone 2E08 (antibody, V domains shown)
VH: QVQLVQSGAEVKKPGESLKISCTGSGYRFSHYWIGWVRQMPGKGLEWMGMIYPDDSDTRYSPSFQGQVTISADKSINTAYLQWTSLRASDSAIYYCATGVISGTDYWGQGTLVTVSS
VL: SYVLTQPPSVSVSPGQTARITCSGDKLGDKYVSWYQLKPGQSPVVVIYQDNKRPSGIPERFSASNSENTGTLTISGTQAMDEADYYCQTWDSGTGVFGTGTKLTVL
notes: full-length IgG
Regarding B1, the binding result in test [1] and in test [2] was “no binding (tested: up to 10 µg/mL)” each time.

B2: anti-TrkB chicken-derived clone E2 (antibody, V domains shown)
VH: AVTLDESGGGLQTPGGALSLVCKASGFDFSSNAMGWVRQAPGKGLEFIASITTDGSYTTYGAAVKGRATISRDDGQSTLRLQLNNLRAEDTATYYCAKDSSIHWNGYDIDAWGHGTEVIVSS
VL: QAALTQPSSVSANPGETVKITCSGSINNYGWYQQKSPGSAPVTVIYQNDKRPSDIPSRFSGSKSGSTGTLTITGVQAEDEAVYFCGSEDSRTYLGIFGAGTTLTVL
notes: chimeric chicken-human mAb
As to B2, the “TrkB activation (EC50)” value in test [3] was determined as 0.17 µg/mL. In addition, the koff in test [4] was determined as 0.000575 s⁻¹.

B3: anti-TrkB clone 3D06 (antibody, V domains shown)
VH: EVQLVQSGAEVKKPGESLKISCQGSGYTFTNYWIAWVRQMPGKGLEWMGIIYPGDSDTRYSPSFQGQVTISADKSISTAYLQWSSLKASDTAMYYCAIGYDYGAFDIWGQGTMVTVSS
VL: QPVLTQPPSASGTPGQRVSISCSGSNSNIGSNSVYWYQQLPGTAPKLLIYRNNQRPSGVPDRFSGSKSGTSASLAISGLRSEDEADYYCAAWDDSLSGYVFGTGTQLTVL
notes: full-length IgG
As to B3, the binding result in test [1] and in test [2] was “no binding (tested: up to 10 µg/mL)” in each case.

B4: anti-TrkB chicken-derived clone F5 (antibody, V domains shown)
VH: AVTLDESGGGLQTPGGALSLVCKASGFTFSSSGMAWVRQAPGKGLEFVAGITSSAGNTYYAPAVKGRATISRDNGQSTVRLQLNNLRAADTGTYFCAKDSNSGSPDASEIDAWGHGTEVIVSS
VL: QAALTQPASVSANPGETVKITCSGYKSYYGWYQQKSPGSAPVTVIYDNTNRPSNIPSRFSGSTSGSTATLTITGVQADDEAVYYCGNADHSYVGVFGAGTTLTVL
notes: chimeric chicken-human mAb
For the molecule B4, in test [3], the “TrkB activation (EC50)” value was 0.046 µg/mL. Further, in test [4], the koff worked out at 0.00163 s⁻¹.

B5: anti-TrkB clone 3D03 (antibody, V domains shown)
VH: EVQLVQSGAEVKKPGESLKISCKGSGYSFTSYWIGWVRQMPGKGLEWMGIIYPGDSDTRYSPSFQGQVTISADKSISTAYLQWSSLKASDTAMYYCARLGGSLPIDYWGQGTLVTVSS
VL: QSVLTQPPSVSVSPGQTASITCSGDKLGDKYVSWYQQKPGQSPVLVIYQDSKRPSGIPERFSGSNSGSTATLTISGTQALDEADYYCQAWDNNIGVFGGGTKLTVL
notes: full-length IgG
For the molecule B5, the binding result in test [1] and in test [2] was “no binding (tested: up to 10 µg/mL)” in each case.

B6: anti-TrkB clone 2H05 (antibody, V domains shown)
VH: EVQLVESGAEVKKPGESLRISCKGSGYSFTNNWINWVRQMPGKGLEWMGRIDPDDSYTNYSPSFQGHVIFSADKSSNTVYLQWSSLEASDTAMYYCARRAQGGGGYDYWGQGTLVTVSS
VL: QSVLTQPSSVSGAPGQRVTISCTGSSSNIGAGYGVHWYQQLPGTAPKLLIYDDINRPSGVPDRFSGSKSGTSASLAITGLRAEDEADYYCQSYDTSRGGLYVFGSGTKLTVL
notes: full-length IgG
As for B6, the binding result in test [1] and in test [2] was “no binding (tested: up to 10 µg/mL)” in each case.

B7: anti-TrkB clone 4D01 (antibody, V domains shown)
VH: EVQLVQSGAEVKKPGESLKISCKGSRYSFTSYWIGWVRQMPGKGLEWMGIIYPGDSDTRYSPSFQGQVTISADKSISTAYLQWSSLKASDTAMYYCARLKDGAFDIWGQGTMVTVSS
VL: QAVLTQPPSASGTPGQRVTISCSGSSSNIEGNYVHWYQQLPGAAPKVLIYRNNQRPSGVPDRFSGSKSGTSASLAISGLRSEDETDYFCAAWDDSLNGYVFGAGTKVTVL
notes: full-length IgG
For B7, the binding result in test [1] and in test [2] was “no binding (tested: up to 10 µg/mL)” throughout.

B8: anti-TrkB clone 3B06 (antibody, V domains shown)
VH: EVQLVQSGAEVKEPGASVKVSCKASGYTFTNYAMHWVRQAPGQRLEWMGWINPNTGGTNYAQKFQGRVTMTRDTSISTAYMELSSLRSDDTAVYYCARGGGGLVFWGQGTLVTVSS
VL: DIVMTQTPLSLPVTLGQPASISCRSSQSLVDRDGNTYLNWFRQRPGQSPRRLIYKVSNRDSGVPGTFSGSGSGTDFTLKISRVEADDVGVYFCMQATHWPPTFGQGTKVEI
notes: full-length IgG
In the case of B8, the binding result in test [1] and in test [2] was “no binding (tested: up to 10 µg/mL)” each time.
